Measured values taken from patent US20080207449A1 (CROPDESIGN N V, published 2008).

Tests used:
[1] = molecular target: T1, empty pGBT9 (GAL4 DNA-binding domain alone) (UniProt P04386 1-147); test: yeast two-hybrid, growth on His- minimal medium; both vectors empty; legend: -, no interaction
T1 construct: empty bait vector, control for specificity; also called pBGT9
Method: Different combinations between bait (pGBTE2Fa226-356, pGBTE2Fb-Rb, or pGBTE2Fb 1-127, SEQ ID NO:207) and prey constructs were transformed into yeast cells and assayed for their ability to grow on His⁻ minimal media after 3 days of incubation at 30° C. Bait plasmids co-transformed with empty pAD-GAL424 and prey plasmids co-transformed with empty pGBT9 were assessed along as controls for the specificity of the interaction.
Different combinations between AtE2Fs bait and AtDPs prey constructs were tested for growth on His minimal media. −, no interaction; +, positive interaction; NT, not tested.

[2] = molecular target: pGBTE2Fb 1-127: GAL4 DNA-binding domain fusion of AtE2Fb amino acids 1-127 (Arabidopsis); test: yeast two-hybrid, growth on His- minimal medium; empty prey vector control; legend: -, no interaction
[3] = molecular target: T2, pGBTE2Fa226-356: GAL4 DNA-binding domain fusion of AtE2Fa amino acids 226-356 (Arabidopsis); test: as above
T2 construct: also called E2F5 dimerisation domain; E2Fa (=E2F5) dimerization domain

[4] = molecular target: T3, pGBT DPa 1-292: GAL4 DNA-binding domain fusion of AtDPa 1-292 (Arabidopsis thaliana); test: as above
T3 construct: its construction is not described

[5] = molecular target: T4, pGBTE2Fb-Rb: GAL4 DNA-binding domain fusion of AtE2Fb amino acids 1-385 (lacking the Rb-binding domain) (Arabidopsis); test: as above
T4 construct: also called E2F3 N-terminal; E2Fb (=E2F3) N-terminal domain

[6] = molecular target: T5, pGBT DPb 1-385: GAL4 DNA-binding domain fusion of AtDPb 1-385 (Arabidopsis thaliana); test: as above
T5 construct: its construction is not described

Measured: binding result

B1: empty pAD-GAL424 (GAL4 transactivation domain alone) (other, UniProt P04386 768-881, looked up)
chain: ANFNQSGNIADSSLSFTFTNSSNGPNLITTQTNSQALSQPIASSNVHDNFMNNEITASKIDDGNNSKPLSPGWTDQTAYNAFGITTGMFNTTTMDDVYNYLFDDEDTPPNPKKE
notes: empty prey vector, control for specificity
no binding: [1] | [2] | [3] | [4] | [5] | [6]
